{"source": "patent US20240360176", "tested_on": "pNaKtide"}
{"substance": "Src kinase (mouse, endogenous in the liver of C57BL/6J mice)", "values": [{"measurement": "Src phosphorylation in mouse liver, ratio pSrc/pSrc+cSrc by Western blot", "value": "Src phosphorylation peaked in the HFD groups at week 20, with paucity on pSrc peak in the pNaKtide and Exercise groups"}]}
